According to patent US20230112123A1 (IMMUNEONCO BIOPHARMACEUTICALS SHANGHAI, published 2023):

Columns and labels:
human CD70 [1] = target: T1, human CD70 (human, UniProt P32970 1-193); assay: flow cytometry on CHO cells expressing human CD70
T1 construct: whole, on cells; Stated as human for the CHO transfectants; also called cell surface CD70s
T1 sequence (looked up): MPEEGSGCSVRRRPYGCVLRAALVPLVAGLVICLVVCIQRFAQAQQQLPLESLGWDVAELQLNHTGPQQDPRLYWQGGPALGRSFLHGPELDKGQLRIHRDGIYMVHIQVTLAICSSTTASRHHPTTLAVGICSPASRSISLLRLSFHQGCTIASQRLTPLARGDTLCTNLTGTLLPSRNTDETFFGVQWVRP
Experimental: (§1) Cells were washed with 1% BSA-PBS once, and then incubated with 100 μl 1:500 diluted FITC-conjugated secondary antibody against human IgG-Fc (Cat #F9512, Sigma) at 4° C. for 45 min. Cells were washed once with 1% BSA-PBS, re-suspended in 200 μl 1% BSA-PBS, and then subject to FACS analysis using a flow cytometer (Merck Millipore, Guava® easyCyte 5HT).

human CD70 [2] = target: T1, human CD70; assay: flow cytometry on CD47+CD70+ Raji cells
human CD70 [3] = target: T1, human CD70; assay: flow cytometry on CD70+ CHO cells
Experimental: as §1

Row | Binder | binding result (human CD70 [3]) | other results
1 | IMM40C (antibody, human IgG1, kappa, V domains shown, Chimeric IgG: mouse variable regions with human IgG1 and human kappa constant regions; expressed in CHO-S cells) VH: QVQLQQSGPEVVRPGVSVKISCKGSGYTFTDSALHWVKQSHAKSLEWIGVISTYDGDTDYNQKFKGKATMTVDKSSSTAYMELARLTSEDSAIYYCARRGYYDYDWFPYWGQGTLVTVSA VL: DIVLTQSPASLAISLGQRATISCRASKSVSASGYSFLHWYQQKPGQPPKLLIYLASNLESGVPARFSGSGSGTDFTLNIHPVEEEDAATFYCQHSRELPPTFGGGTKLEIKR | – | binding result (human CD70 [1]): binds
2 | Cusatuzumab (antibody, human IgG1, lambda, V domains shown, Anti-CD70 IgG used as comparator) VH: EVQLVESGGGLVQPGGSLRLSCAASGFTFSVYYMNWVRQAPGKGLEWVSDINNEGGTTYYADSVKGRFTISRDNSKNSLYLQMNSLRAEDTAVYYCARDAGYSNHVPIFDSWGQGTLVTVSS VL: QAVVTQEPSLTVSPGGTVTLTCGLKSGSVTSDNFPTWYQQTPGQAPRLLIYNTNTRHSGVPDRFSGSILGNKAALTITGAQADDEAEYFCALFISNPSVEFGGGTQLTVLG | – | binding result (human CD70 [2]): binds
3 | IMM40H (antibody, human IgG1, kappa, V domains shown, Humanized IgG1/kappa; X=N for IMM40H; N85 is a glycosylation site in the light chain variable region; also called IMM4OH) VH: QVQLVQSGAEVKKPGASVKVSCKVSGYTFTDSALHWVRQAPGKGLEWMGVISTYDGDTDYNQKFKGRVTMTEDTSTDTAYMELSSLRSEDTAVYYCARRGYYDYDWFPYWGQGTLVTVSA VL: DIVLTQSPASLAVSPGQRATITCRASKSVSASGYSFLHWYQQKPGQPPKLLIYLASNLESGVPARFSGSGSGTDFTLTINPVEANDTANYYCQHSRELPPTFGGGTKVEIKR | binds | –
4 | IMM40M (antibody, human IgG1, kappa, V domains shown, IMM40H with N85E in the light chain variable region, which removes a glycosylation site; also called IMM4OM) VH: QVQLVQSGAEVKKPGASVKVSCKVSGYTFTDSALHWVRQAPGKGLEWMGVISTYDGDTDYNQKFKGRVTMTEDTSTDTAYMELSSLRSEDTAVYYCARRGYYDYDWFPYWGQGTLVTVSA VL: DIVLTQSPASLAVSPGQRATITCRASKSVSASGYSFLHWYQQKPGQPPKLLIYLASNLESGVPARFSGSGSGTDFTLTINPVEAEDTANYYCQHSRELPPTFGGGTKVEIKR | binds | –
